How the values were obtained:
[1] = biological target: g12 mutant (Env protein) of the HIV-1 isolate 133 (HIV-1 primary isolate 133); assay: capture ELISA, 17b 1 µg/ml
[2] = biological target: g12 mutant (Env protein) of the HIV-1 isolate 133 (HIV-1 primary isolate 133); assay: capture ELISA on lysates and supernatants, F105 1 µg/ml

Substance | signal relative to the native protein [1] [times] | signal relative to the native protein [2] [times]
17b human monoclonal antibody | 3 | –
F105 human monoclonal antibody (NIBSC) | – | < 4.5

Reference: patent publication US20050065320A1
